Assay results taken from the supplement of paper PMC12042874.
± gives the uncertainty stated by the source.

Assay: amyloid nucleation score (Sup35N fusion, yeast selection) (log enrichment); library NNK1; higher = more nucleation; inactive = no reads after selection
In short: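 Growth for 7 days at 30°C on medium lacking adenine and uracil followed a 24-hour induction with 100 μM copper sulfate of psi-negative yeast expressing peptides of 20 random codons fused to Sup35N. Input and output plasmid inserts were sequenced with Illumina, and sequences with under 100 input reads were excluded. Nucleation score is the DiMSum log enrichment of output over input reads, centred on the mode score of non-aggregating sequences.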

| Substance | amyloid nucleation score |
| --- | --- |
| RFFPDNNCMQCDATAEDTGL | -0.246 ± 1.4 |
| RFIGVQQMVCVTYNWFKVLG | 1.16 ± 0.19 |
| RFLSMWSHCQLMF | inactive |
| RFMCWVFTGCLGLSGNSSC | 1.95 ± 0.16 |
| RFNISIPD | -1.01 ± 0.5 |
| RFSKNE | 0.523 ± 0.87 |
| RFVLWYYDY | 3.12 ± 0.076 |
| RFVMRPFATVSTFSISVPAC | -0.638 ± 0.74 |
| RFVQRKDSFFARI | 1.21 ± 0.66 |
| RGDGTRNRRCAIFSN | -0.064 ± 0.99 |
| RGELVPHVVMYNLWKL | 4.21 ± 0.082 |
| RGEVHSIWTPPLHKGQEMGI | 0.048 ± 0.78 |
| RGFNVVHGGELRRMLMTEGD | 0.926 ± 0.43 |
| RGPLVFYLFTFWLCDRGNVL | 0.046 ± 0.58 |
| RGQQPFVTLKRAVFKSINTD | -0.02 ± 0.41 |
| RGRSIDVPRE | -0.004 ± 0.53 |
| RGRTRLKFLCLLYWWGKTKG | -0.4 ± 0.44 |
| RGSCMIVGKACS | -0.37 ± 0.33 |
| RGSRTY | 0.17 ± 0.53 |
| RGSVFPCNVQVDWLRPETRA | -0.047 ± 1.1 |
| RGSVWATSCRIAKPIVFWGW | inactive |
| RGVYVWKGSSLH | -0.377 ± 1.1 |
| RGYVCTVVLSNILLGITTEG | 3.79 ± 0.097 |
| RHDALLSGLYHCRCNQLNVC | 4.2 ± 0.074 |

| Substance | amyloid nucleation score |
| --- | --- |
| RHPSWLYDVFNIVLVITACW | -0.062 ± 0.97 |
| RHSGDFLVFMYKGVLVWSTG | 3.24 ± 0.092 |
| RHVDRLVLWHEDSVAPGETN | 0.394 ± 0.49 |
| RIELLWRKVSGKCLVQDFDI | 0.117 ± 0.47 |
| RIFLSVLLLMTVNVSVWPCH | -1.23 ± 1.5 |
| RIFYFPSLRRKGDYNWRMVV | 0.27 ± 0.39 |
| RIGTFGNDNSMFRSDVLSVS | 0.579 ± 0.35 |
| RIGTTWMMCIPWVLNCNV | 6.945 ± 0.051 |
| RIIYGCCAVRFARSMAKHPM | -0.716 ± 0.38 |
| RILAIIVGVSAVSKKSNNEL | 0.913 ± 0.48 |
| RILYSSSSAFIGIYSLFVII | 0.292 ± 0.23 |
| RIMGFRTFEHWIININYLLL | -0.094 ± 0.41 |
| RINLVDLMWMRHWRMGNI | 1.41 ± 0.29 |
| RIRNSEAGMLYTLYVTRLVD | -0.007 ± 0.31 |
| RIYILIDYSVYFSSIELLHF | -1.67 ± 1.1 |
| RKFAFKSIWSWYRI | 0.533 ± 0.54 |
| RKFSNLVGRYALFICLKSLT | -0.28 ± 0.3 |
| RKSLTGYKYCMKWGTIVAPN | 0.745 ± 0.59 |
| RKVMKTRVSIDHVNFAERRF | 1.82 ± 0.29 |
| RKVSANRFSYWRMGKGMYPV | 0.042 ± 0.34 |
| RLAGKHKRTDTRSKRTPVLR | 0.495 ± 0.47 |
| RLASRCLLALGMEWLIPMER | 2.6 ± 0.11 |
| RLCQVDEAASTESRKAKWGR | 0.075 ± 0.35 |
| RLDIDFNGLRMFLNVFLMVV | -0.188 ± 0.2 |

| Substance | amyloid nucleation score |
| --- | --- |
| RLFCGSWDNFREGE | -0.063 ± 0.58 |
| RLFPDAMDSRRYIKWQRVV | 0.215 ± 0.42 |
| RLFRNTPSDFTFVYTCGRDA | 0.497 ± 0.57 |
| RLFSENMQEVMV | -0.698 ± 0.52 |
| RLGTSAMRCQP | 0.038 ± 0.78 |
| RLHSKRAHTRS | inactive |
| RLMSADFMQQEMMRGKVMAG | -0.351 ± 0.41 |
| RLMSNYHEGAAHKGGKHMPW | -0.495 ± 0.65 |
| RLNVILGLTSTLNYSSVMPR | 3.67 ± 0.17 |
| RLRLIFTCMR | 3.08 ± 0.11 |
| RLRPTTAASSLCSVLVPR | -0.097 ± 1.1 |
| RLSNLVRPLDRLIGVVEVGM | 0.469 ± 0.42 |
| RLSTFSFMVSICTHCLLYTN | 1.06 ± 0.59 |
| RLVCKFRMRKSNRGVRNMLC | 0.797 ± 0.53 |
| RLYIHHVIHVDKYNFGVYPP | 0.245 ± 0.32 |
| RMDFIHISTAIFSKEVDSRR | 1.04 ± 0.47 |
| RMGNLEKCKEPGVVNRWLGI | -0.507 ± 0.52 |
| RMHRTDWASIHKDGRPQRRF | 1.23 ± 0.76 |
| RMMLHRGLYYNVMLNYSLI | 0.86 ± 0.47 |
| RMSNDITNFSFTIVTM | 3.86 ± 0.08 |
| RMYITMSQSRKVVICVMMVM | -0.164 ± 1.1 |
| RMYWVDFAGLFIDCL | inactive |
| RNCLFVFGSLGYCSERAYKL | 6.7 ± 0.087 |
| RNFPWQGFYSTCMMPHF | 0.986 ± 0.6 |

| Substance | amyloid nucleation score |
| --- | --- |
| RNIVRFCNRSFRILLRGSAT | inactive |
| RNLQILQDYKPSSNQCGRKE | -0.885 ± 0.71 |
| RNSDFHFIFWY | 0.865 ± 0.37 |
| RNVCIIVVSEW | 6.589 ± 0.056 |
| RNYCDPGAFGVWGVTGHHRV | -0.816 ± 0.92 |
| RPEISTPFMYGYFVSGVGVA | inactive |
| RPKCWWVIGCIKRKSMSIGR | 2.17 ± 0.081 |
| RPPNISLSQFYDVSCAKLRC | 0.295 ± 0.31 |
| RPRSDSRGTRKDNGFDDVKL | 0.438 ± 0.39 |
| RQFIELKCLFPMADVIVF | 0.315 ± 0.38 |
| RQFSSTRFCREHRITGMQLG | 0.369 ± 0.79 |
| RQSRVQGMYHY | 1.28 ± 0.48 |
| RRATLSHAPGGPMGLEWSRW | 0.444 ± 1.2 |
| RRCLSIPLVCFRDKNMNMGF | -0.246 ± 0.46 |
| RREVRCSQR | -0.559 ± 0.61 |
| RRGEPIKKIPACGGSLCVR | -0.368 ± 0.47 |
| RRGGFG | -0.085 ± 0.69 |
| RRGSCLRFKV | 0.859 ± 0.97 |
| RRGTSFLQIYLACSHVQTSH | 4.56 ± 0.11 |
| RRHPS | inactive |
| RRICSNCLFSGGIWNISGWV | 0.509 ± 1.1 |
| RRSYDSLFVVVRRINTCSSP | -0.852 ± 1.1 |
| RRTLEAFICL | -0.312 ± 0.84 |
| RSALVLVYGLTACLNGLGMC | 3.04 ± 0.097 |

| Substance | amyloid nucleation score |
| --- | --- |
| RSEGRRGRFNMWSLAFGDVP | -0.218 ± 0.3 |
| RSESNVMS | 0.397 ± 0.71 |
| RSFPSTFLLVLLQDSRC | 2.17 ± 0.24 |
| RSGTPQSERDGGGFTEVKKT | -0.205 ± 0.42 |
| RSGVVIVVLSVYGSSQRARG | -0.108 ± 0.4 |
| RSHSNISKSPLFVVGGAQFM | 0.995 ± 0.56 |
| RSLFPFSSLDMGHRRVGGKV | 0.384 ± 0.52 |
| RSNYVDVSGLSYGGLIAL | inactive |
| RSRAISIKWCIGVGHPGNWV | inactive |
| RSRKK | 0.34 ± 0.21 |
| RSSKGFMCMEMCLGWGQSTS | 3.41 ± 0.095 |
| RSSPHSGWQPVDLKY | -1.37 ± 2.4 |
| RSVGFEGMSNGWCATES | 0.634 ± 0.77 |
| RSVMCGWDHPRDRVGAPEWL | 0.439 ± 0.71 |
| RSVMVMLPS | 0.022 ± 0.37 |
| RSVSRRGYVGAFPSQVWLGL | 0.214 ± 0.77 |
| RSWKNKFYPVCFSKSGSRF | -0.215 ± 0.41 |
| RSWPSCNCVAKANMCFARSL | -0.521 ± 0.39 |
| RSYEDGALVVVGMRFGDRLR | 0.336 ± 0.87 |
| RTLSWFRRKIIVLYLYYTHS | -0.272 ± 0.88 |
| RTMCRFPYGCMTRSYVSG | 0.159 ± 0.38 |
| RTMLMLMTSVLGGQGK | 7.02 ± 0.079 |
| RTPFFKRICK | -0.303 ± 0.69 |
| RVEKCWAMTDKCIRHRFLTS | 0.774 ± 0.48 |

| Substance | amyloid nucleation score |
| --- | --- |
| RVIFSGYWRAIFSLS | -0.383 ± 0.66 |
| RVIGE | 1.36 ± 0.49 |
| RVLRIVEAVVVSSCGFVDLR | 1.69 ± 0.25 |
| RVNLFSPYAWCIQIGSHHYG | 7.444 ± 0.047 |
| RVPATLNLLGVRQGRD | 0.26 ± 0.72 |
| RVRGSASMLLSLMCSFTMYE | 3.3 ± 0.14 |
| RVSGMAGFFTIKLLKRRSWA | -0.503 ± 0.62 |
| RVSRLPFDECSFLLVTVEGI | 0.311 ± 0.49 |
| RVSVVQFMSKVPTRLMVIEW | 0.705 ± 0.65 |
| RVTVIIFTLSRGYIIMSRNR | -1.12 ± 1.1 |
| RVTYNSETTRCFCEVFAPYR | -0.875 ± 2.4 |
| RVYYLMDLIACCPYSLGHRN | 8.606 ± 0.051 |
| RWCWWFFSSYAFFRSNISWV | -0.197 ± 0.42 |
| RWESKRRRRGRYGFWSVSVR | 0.129 ± 0.35 |
| RWGGDALNAWHASDSSVGLR | -1.01 ± 0.73 |
| RWMSYHIVPRRGSYCVTTLT | 0.492 ± 0.85 |
| RWPVFNSCLSSSPRRAEYRY | 0.616 ± 0.59 |
| RWRLFLRAMSLYDDVSHASA | 0.287 ± 0.23 |
| RWSIELCVRM | -0.367 ± 0.51 |
| RWSLGGICVYVGLNEFVLMI | 2.56 ± 0.22 |
| RWVYSTRNHLKIVRNNKSEL | -2.15 ± 2.4 |
| RYATSMYPL | 0.069 ± 0.56 |
| RYCVGLVRICLKLGVREICS | 1.01 ± 0.97 |
| RYGRYSCSIIEGLCLMSSKW | 0.676 ± 0.95 |

| Substance | amyloid nucleation score |
| --- | --- |
| RYMVGSENEIRL | 0.583 ± 0.29 |
| RYNRLCTSLGRFKVVKSILS | 0.131 ± 0.33 |
| RYSLFIVSYCDGHRSSTRNM | inactive |
| RYVSVTGYDAQCRYCDKGTG | -0.326 ± 0.44 |
| RYYVSSLRPVRRQSRKDGCG | -0.414 ± 0.63 |
| RYYYAQEWPVALFLSRPKVP | 0.406 ± 0.63 |
| SACQLFGVMVPEHRRALMVW | 0.018 ± 0.42 |
| SADKSSFKPFLESTASRVQI | -0.62 ± 1.1 |
| SAELKDLRGKQLLAGGP | 0.53 ± 1.1 |
| SAIMEVLRMDDTCLWSNWVM | 0.057 ± 0.37 |
| SAMAWIPFTISPRFEFRTCN | 5.16 ± 0.061 |
| SASGAWSGWPHRKVGYGSSL | 0.664 ± 0.36 |
| SATASNGRMAGSVSSWRKRW | 0.219 ± 0.36 |
| SAVSMVR | -0.594 ± 0.55 |
| SAVVTRMGGGLKLRTWHEGN | 0.53 ± 0.55 |
| SAVWEVVEGDVLMWSYMKSP | 0.019 ± 0.33 |
| SCAYQGKLSIAAMLVSGFGC | 1.16 ± 0.97 |
| SCDYGL | 0.512 ± 0.63 |
| SCERW | -0.111 ± 0.45 |
| SCKGQPARVTCETRFTGYER | 2.32 ± 0.49 |
| SCLPFLGYPFQDVGLIFLVA | 0.749 ± 0.51 |
| SCLWSSCCVV | 0.171 ± 0.44 |
| SCMRSKWKNTWLKYRYVNCI | -0.493 ± 0.62 |
| SCNWDRNVLDMFFLN | inactive |
